Reference: patent US20140120095A1 (Boehringer Ingelheim, published 2014)

T1: cynomolgus DLL4 overexpressed on cells (cynomolgus, UniProt Q9NR61 27-685 (human entry))
T1 construct: also called cyno DII4; cDLL4
T1 chain: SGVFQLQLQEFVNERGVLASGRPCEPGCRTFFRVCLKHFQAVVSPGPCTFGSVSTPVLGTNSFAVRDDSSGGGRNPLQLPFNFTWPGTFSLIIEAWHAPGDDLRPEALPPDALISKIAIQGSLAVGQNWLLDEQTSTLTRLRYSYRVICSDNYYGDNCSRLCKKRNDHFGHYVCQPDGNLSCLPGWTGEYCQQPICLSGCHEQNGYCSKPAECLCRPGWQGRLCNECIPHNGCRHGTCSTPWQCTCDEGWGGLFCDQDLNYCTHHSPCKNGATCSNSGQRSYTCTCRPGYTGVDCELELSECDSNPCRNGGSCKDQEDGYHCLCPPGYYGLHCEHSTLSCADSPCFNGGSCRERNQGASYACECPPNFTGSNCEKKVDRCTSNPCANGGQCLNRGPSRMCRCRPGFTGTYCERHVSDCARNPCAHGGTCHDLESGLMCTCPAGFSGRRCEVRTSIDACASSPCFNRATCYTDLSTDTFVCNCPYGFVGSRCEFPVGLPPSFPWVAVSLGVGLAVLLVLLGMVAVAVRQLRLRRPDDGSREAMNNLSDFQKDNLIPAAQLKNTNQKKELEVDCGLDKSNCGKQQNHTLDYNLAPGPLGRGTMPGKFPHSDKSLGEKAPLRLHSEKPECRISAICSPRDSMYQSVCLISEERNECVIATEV

T2: human DLL1 (human, UniProt O00548 18-545, limits assumed)
T2 construct: also called hDLL1
T2 sequence (looked up): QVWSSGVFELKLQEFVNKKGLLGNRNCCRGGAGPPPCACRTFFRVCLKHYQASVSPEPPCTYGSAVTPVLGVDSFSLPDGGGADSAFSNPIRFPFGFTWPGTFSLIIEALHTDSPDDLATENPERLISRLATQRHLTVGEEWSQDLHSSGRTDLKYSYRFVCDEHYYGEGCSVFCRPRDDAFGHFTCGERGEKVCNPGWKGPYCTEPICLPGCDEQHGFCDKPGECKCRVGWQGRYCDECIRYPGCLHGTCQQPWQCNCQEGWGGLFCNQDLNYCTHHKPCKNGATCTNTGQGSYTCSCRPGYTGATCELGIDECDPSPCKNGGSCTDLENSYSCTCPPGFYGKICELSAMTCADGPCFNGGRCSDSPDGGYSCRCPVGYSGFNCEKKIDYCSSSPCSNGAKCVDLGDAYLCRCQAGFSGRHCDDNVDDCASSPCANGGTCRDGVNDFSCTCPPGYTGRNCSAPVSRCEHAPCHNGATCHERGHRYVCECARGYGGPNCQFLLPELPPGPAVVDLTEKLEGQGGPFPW


Legend:
[1] = biological target: T3, human DLL4 overexpressed on cells (human, UniProt Q9NR61 27-685); assay: cell-based or functional assay
[2] = biological target: T4, recombinant human DLL4 (human, UniProt Q9NR61 25-522); assay: cell-based or functional assay
[3] = biological target: T4, recombinant human DLL4; assay: binding ELISA, coated rhDLL4
Description: (§1) In order to determine cross-reactivity to mouse DII4 a binding ELISA is performed. […] Wells are blocked with a casein solution (1% in PBS). VHHs are applied as dilution series and binding is detected using a mouse anti-myc (Roche) and an anti-mouse-AP conjugate (Sigma, St Louis, Mo., USA) (FIG. 7 A-H). As reference, binding to human DII4 is measured.

[4] = biological target: T4, recombinant human DLL4; assay: Biacore off-rate, periplasmic extract
[5] = biological target: T3, human DLL4 overexpressed on cells; assay: competitive FMAT, hNotch1-Fc on CHO-hDLL4
[6] = biological target: T3, human DLL4 overexpressed on cells; assay: FACS titration on HEK293-hDLL4 cells, MCF
Description: In order to determine the cynomologus cross-reactivity of the VHHs, a FACS binding experiment is performed. Cynomolgus DII4 expressing HEK293 cells (transient or stable transfection) are used for a titration binding experiment of the VHHs. After a 30 minutes incubation on ice, all samples are washed and detection is performed by applying anti-c-myc˜Alexa647 (Santa Cruz Biotechnology, Santa Cruz, Calif., USA). Human and mouse DII4 overexpressing HEK293 cells are taken as reference. The mean MCF value is determined on the FACS Array and used for calculation of the EC₅₀ value (see FIG. 9 A-E).

[7] = biological target: T1, cynomolgus DLL4 overexpressed on cells; assay: FACS titration on HEK293-cDLL4 cells, MCF
How it was run: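 HEK293 cells overexpressing DLL4 (transient or stable) were incubated with VHH titrations for 30 min on ice. After washing, binding was detected with anti-c-myc-Alexa647 by flow cytometry, and the mean MCF was used to calculate EC50.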

[8] = biological target: T4, recombinant human DLL4; assay: competition ELISA, biot-hDLL4 to coated hNotch1-Fc
Excerpt: Residual binding of biotinylated human DII4 is detected using horseradish peroxidase (HRP) conjugated extravidin (Sigma, St. Louis, Mo., USA) (FIG. 3 A-C). Human DII4 is biotinylated as described above.

[9] = biological target: T3, human DLL4 overexpressed on cells; assay: FMAT, labelled hNotch1-Fc on CHO-hDLL4, periplasmic extract
Excerpt: (§2) All calculations are based on the FL1_total signal which comprises the average of the fluorescence per well times the number of counts per well.

[10] = biological target: T5, mouse DLL4 overexpressed on cells (mouse, UniProt Q9JI71 27-686); assay: FMAT, labelled hNotch1-Fc on CHO-mDLL4, periplasmic extract
T5 construct: whole, on cells; also called CHO-mDLL4; CHO-mDII4
Excerpt: as §2
Target sequence in this assay (Q9JI71 27-686): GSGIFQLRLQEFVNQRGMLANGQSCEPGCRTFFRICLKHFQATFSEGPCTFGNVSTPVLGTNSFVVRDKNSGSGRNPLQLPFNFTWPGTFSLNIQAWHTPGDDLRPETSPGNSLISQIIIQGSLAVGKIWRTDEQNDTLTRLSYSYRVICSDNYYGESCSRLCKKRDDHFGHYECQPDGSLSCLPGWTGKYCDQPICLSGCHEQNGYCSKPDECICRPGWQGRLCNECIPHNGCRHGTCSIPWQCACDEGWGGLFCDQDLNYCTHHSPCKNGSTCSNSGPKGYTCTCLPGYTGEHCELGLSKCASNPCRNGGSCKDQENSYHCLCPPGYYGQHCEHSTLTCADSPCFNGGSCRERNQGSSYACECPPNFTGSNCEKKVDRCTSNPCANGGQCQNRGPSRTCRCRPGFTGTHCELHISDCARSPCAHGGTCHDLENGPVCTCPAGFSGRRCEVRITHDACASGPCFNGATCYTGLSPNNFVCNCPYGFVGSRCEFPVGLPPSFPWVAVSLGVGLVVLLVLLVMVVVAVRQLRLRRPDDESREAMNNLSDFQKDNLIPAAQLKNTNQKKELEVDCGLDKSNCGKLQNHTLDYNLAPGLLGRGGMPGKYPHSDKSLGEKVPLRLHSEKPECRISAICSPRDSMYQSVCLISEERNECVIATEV

[11] = biological target: T6, recombinant mouse DLL4 (mouse, UniProt Q9JI71 27-532); assay: binding ELISA on coated recombinant mouse DLL4, OD 405 nm
T6 construct: extracellular domain; also called rmDLL4; mDLL4
Description: as §1

[12] = biological target: T2, human DLL1; assay: binding ELISA on coated recombinant human DLL1, OD 405 nm
How it was run: (§3)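 Plates coated overnight at 4° C with 1 μg/mL ligand, blocked with 1% casein in PBS. VHH dilution series applied; bound VHH detected via mouse anti-myc then anti-mouse-AP conjugate.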

[13] = biological target: T7, human Jagged-1 (human, UniProt P78504 34-1067, limits assumed); assay: binding ELISA on coated recombinant human Jagged-1, OD 405 nm
T7 construct: also called hJagged-1; hJAG1
How it was run: as §3

[14] = biological target: T4, recombinant human DLL4; assay: SPR Biacore T100, hDLL4 on chip; heterogeneous binding curve, no 1:1 fit
Description: Kinetic analysis to determine the affinity of the DII4-VHH interaction is performed by Surface Plasmon Resonance (SPR) on a Biacore T100 instrument. […] Purified VHHs or Fab fragment are injected for 2 minutes at different concentrations (between 10 and 300 nM) and allowed to dissociate for 20 min at a flow rate of 45 μl/min. Between sample injections, the surfaces are regenerated with 10 mM glycine pH1.5 and 100 mM HCl. HBS-N (Hepes buffer pH7.4) is used as running buffer. If possible, data are evaluated by fitting a 1:1 interaction model (Langmuir binding) onto the binding curves. The affinity constant KD is calculated from resulting association and dissociation rate constants (kₐ) and […].

[15] = biological target: T5, mouse DLL4 overexpressed on cells; assay: FMAT competition on CHO-mDLL4 cells; blocked ligand Alexa-647 labelled hNotch1-Fc
[16] = biological target: T8, human DLL4 expressed on cells (CHO-hDLL4; HEK293-hDLL4) (human, UniProt Q9NR61 27-685); assay: FMAT competition on CHO-hDLL4 cells; unlabelled rhNotch1-Fc competes with Alexa-647 labelled hNotch1-Fc
T8 construct: full length human DLL4 overexpressed on CHO cells (FMAT, FACS) or HEK293 cells (reporter assay)

[17] = biological target: T9, mouse DLL4 expressed on CHO cells (mouse, UniProt Q9JI71 27-686); assay: FMAT competition on CHO-mDLL4 cells; unlabelled rhNotch1-Fc competes with Alexa-647 labelled hNotch1-Fc
T9 construct: whole, on cells; also called mDLL4; CHO-mDLL4

T6 sequence (Q9JI71 27-532): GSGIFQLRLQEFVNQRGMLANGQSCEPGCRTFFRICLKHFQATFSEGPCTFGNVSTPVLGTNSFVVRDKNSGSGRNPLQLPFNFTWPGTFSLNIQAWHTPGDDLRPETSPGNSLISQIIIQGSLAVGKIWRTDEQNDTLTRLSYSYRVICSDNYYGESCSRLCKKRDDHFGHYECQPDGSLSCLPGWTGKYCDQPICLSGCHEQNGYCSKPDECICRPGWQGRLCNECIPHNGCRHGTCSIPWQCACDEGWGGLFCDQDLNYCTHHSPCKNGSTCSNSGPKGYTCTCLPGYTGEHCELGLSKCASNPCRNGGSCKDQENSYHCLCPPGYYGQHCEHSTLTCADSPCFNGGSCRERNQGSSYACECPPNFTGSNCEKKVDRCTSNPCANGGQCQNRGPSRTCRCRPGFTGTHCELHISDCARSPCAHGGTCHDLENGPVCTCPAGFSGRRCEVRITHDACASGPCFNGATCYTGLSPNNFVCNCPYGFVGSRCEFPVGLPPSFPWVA

| IC50, DLL4/Notch1 reporter assay [1] [nM] | IC50 (nM) (experiment 1), DLL4 proliferation assay (HUVEC) [2] | IC50 (nM) (experiment 2), DLL4 proliferation assay (HUVEC) [2] | EC50 [3] [nM] | koff [4] [s⁻¹] | IC50 [5] [nM] | EC50 (read off the curve) [6] [nM] | EC50 (read off the curve) [7] [nM] | IC50 [8] [nM] | % inh [9] [%] | % inh [10] [%] | binding result [11] | binding result [12] | binding result [13] | Kd [14] [nM] | koff [14] [s⁻¹] | kon [14] [M⁻¹ s⁻¹] | IC50 (read off the curve) [15] [nM] | IC50 (read off the curve) [16] [nM] | IC50 (read off the curve) [17] [nM] | Binder |
| --- | --- | --- | --- | --- | --- | --- | --- | --- | --- | --- | --- | --- | --- | --- | --- | --- | --- | --- | --- | --- |
| 964 | 103 | 32 | 8.4 | 0.0012 | 2.5 | ~4 | ~5 | 1.1 | 94 | 86 | no binding (tested: 5e-7 M) | no binding (tested: 5e-7 M) | no binding (tested: 5e-7 M) | 4 to 24 | 0.0006 to 0.003 | 120000 to 150000 | ~60 | – | – | DLLBII104G01 (VHH, also called 104G1) VHH: EVQLVESGGGLVQAGGSLRLSCAASGFTFDDYAIGWFRQAPGKEREGVSCISSSDGSTYYADSVKGRFTISSDNAKNTVYLQMNSLKPEDTAVYYCATAWCDSSWYRSFVGYWGQGTQVTVSS |
| – | – | – | – | – | – | – | – | – | – | – | – | – | – | – | – | – | – | ~4 | ~2 | human Notch1/Fc chimera (R&D Systems) (Fc fusion, UniProt P46531 19-526, looked up, not shown: a dimerising Fc or GST, Alexa-647 labelled in the FMAT assay, also called hNotch1-Fc; rhNotch1/Fc) ARGPRCSQPGETCLNGGKCEAANGTEACVCGGAFVGPRCQDPNPCLSTPCKNAGTCHVVDRRGVADYACSCALGFSGPLCLTPLDNACLTNPCRNGGTCDLLTLTEYKCRCPPGWSGKSCQQADPCASNPCANGGQCLPFEASYICHCPPSFHGPTCRQDVNECGQKPGLCRHGGTCHNEVGSYRCVCRATHTGPNCERPYVPCSPSPCQNGGTCRPTGDVTHECACLPGFTGQNCEENIDDCPGNNCKNGGACVDGVNTYNCRCPPEWTGQYCTEDVDECQLMPNACQNGGTCHNTHGGYNCVCVNGWTGEDCSENIDDCASAACFHGATCHDRVASFYCECPHGRTGLLCHLNDACISNPCNEGSNCDTNPVNGKAICTCPSGYTGPACSQDVDECSLGANPCEHAGKCINTLGSFECQCLQGYTGPRCEIDVNECVSNPCQNDATCLDQIGEFQCICMPGYEGVHCEVNTDECASSPCLHNGRCLDKINEFQCECPTGFTGHLCQ |
